# Test results taken from patent US20090312277.
# Biological target: p21/WAF1 (UniProt P38936)
# Sequence (P38936 whole entry): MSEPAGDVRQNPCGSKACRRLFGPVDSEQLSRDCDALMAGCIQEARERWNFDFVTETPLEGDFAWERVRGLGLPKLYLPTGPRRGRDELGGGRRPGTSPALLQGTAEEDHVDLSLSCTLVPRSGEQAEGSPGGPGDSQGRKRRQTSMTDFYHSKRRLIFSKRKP
# Sequence of cathepsin L (chain, as listed by the source): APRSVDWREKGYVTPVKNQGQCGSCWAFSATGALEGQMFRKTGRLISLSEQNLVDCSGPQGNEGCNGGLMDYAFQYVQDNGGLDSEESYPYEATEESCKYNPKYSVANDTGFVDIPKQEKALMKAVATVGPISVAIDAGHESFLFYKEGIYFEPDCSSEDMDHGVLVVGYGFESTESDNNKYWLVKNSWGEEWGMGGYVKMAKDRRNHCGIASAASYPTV
substance,measurement,value
cathepsin L,cleavage in vitro,p2l/WAF1 is readily cleaved by cathepsin L in vitro
